Reference: patent US7790682B1, “Engineered human acidic fibroblast growth factors and associated methods” (The Florida State University Research Foundation, Inc., priority 2003, dated 2010)
Entries after “also recorded” stand apart in the source; their conditions may differ.

B1: SYM6/ΔΔ: SYM6 FGF-1 mutant plus both Δ104-106 and Δ120-122 deletion mutations, SEQ ID NO: 1 (protein)
chain: FNLPPGNYKKPKLLYCSNGGHFLRILPDGTVDGTRDRSDQHIQFQLSAESVGEVYIKSTETGQYLAIDTDGLVYGSQTPNEECLFLERLEENHYNTYISKKHGWFLGIKKNGSVKGTHYGQKAILFLPLPVSSD
modifications: Human FGF-1 mutant SYM6DD
B2: SYM5/Δ120-122: SYM5 FGF-1 mutant plus Arg119→Gly/ΔGly120/ΔPro121/ΔArg122, SEQ ID NO: 2 (protein)
chain: FNLPPGNYKKPKLLYCSNGGHFLRILPDGTVDGTRDRSDQHIQFQLSAESVGEVYIKSTETGQYLAMDTDGLVYGSQTPNEECLFLERLEENHYNTYISKKHAEKNWFLGIKKNGSVKGTHYGQKAILFLPLPVSSD
modifications: Human FGF-1 mutant SYM5D120-122
B3: SYM5: FGF-1 core mutant Leu44→Phe/Leu73→Val/Val109→Leu/Leu111→Ile/Cys117→Val (protein, UniProt P05230 16-155, looked up, variant L44F L73V V109L L111I C117V)
Fibroblast growth factor 1: FNLPPGNYKKPKLLYCSNGGHFLRILPDGTVDGTRDRSDQHIQFQLSAESVGEVYIKSTETGQYLAMDTDGLVYGSQTPNEECLFLERLEENHYNTYISKKHAEKNWFLGIKKNGSVKRGPRTHYGQKAILFLPLPVSSD
B4: SYM5/Δ104-106: SYM5 FGF-1 mutant plus Ala103→Gly/ΔGlu104/ΔLys105/ΔAsn106 (protein, UniProt P05230 16-155, looked up, variant L44F L73V V109L L111I C117V A103G del104-106)
Fibroblast growth factor 1: FNLPPGNYKKPKLLYCSNGGHFLRILPDGTVDGTRDRSDQHIQFQLSAESVGEVYIKSTETGQYLAMDTDGLVYGSQTPNEECLFLERLEENHYNTYISKKHGWFLGIKKNGSVKRGPRTHYGQKAILFLPLPVSSD

Legend:
[1] = test system: NIH 3T3 fibroblasts; assay: Cell proliferation (mitogenic activity) assay; format: cell-based; details: NIH 3T3 fibroblasts; for EC50 (effective concentration for 50% maximal stimulation): 48 hours
Method: NIH 3T3 fibroblasts were initially plated in Dulbecco's modified Eagle's medium (DMEM) (American Type Culture Collection, Manassas Va.) supplemented with 10% (v/v) newborn calf serum (NCS) (Sigma, St. Louis Mo.), 100 units of penicillin, 100 μg streptomycin, 0.25 μg Fungizone™ and 0.01 mg/ml gentamicin (Gibco, Carlsbad Calif.) (“serum-rich” medium) in T75 tissue culture flasks (Fisher, Pittsburgh Pa.). The cultures were incubated at 37° C. and all cell growth was performed with 5% CO2 supplementation. At approximately 80% cell confluence, the cells were washed with 5 ml cold 0.14M NaCl, 5.1 mM KCl, 0.7 mM Na2HPO4 and 24.8 mM Trizma® base, pH 7.4 (TBS) and subsequently treated with 5 ml of a 0.025% trypsin solution (Invitrogen Corp., Carlsbad Calif.). Cell synchronization was initiated by serum starvation in DMEM with 0.5% NCS, 100 units of penicillin, 100 μg streptomycin, 0.25 μg Fungizone™ and 0.01 mg/ml gentamicin (“starvation” medium). The cells were seeded in T25 tissue culture flasks (Fisher, Pittsburgh, Pa.) at a cell density of 3.0×10^4 cells/cm^2 (representing ˜20% confluence). Duplicate flasks were used for each protein concentration. Cultures were incubated for 48 hours at 37° C., the medium was then decanted and replaced with fresh medium supplemented with the appropriate concentration of FGF-1 polypeptide, and incubated for an additional 48 hours. After this incubation, the medium was decanted and the cells were washed with 1 ml cold TBS pH 7.4. 1 ml of 0.025% trypsin was then added to release the cells from the flask surface, and 2 ml of serum-rich medium were added to dilute and inhibit the trypsin. The cells were counted using a hemocytometer (Hausser Scientific Partnership, Horsham Pa.). Experiments were performed in quadruplicate and the cell densities were averaged. The relationship between the cell number and log concentration of added growth factor was fit to a sigmoidal function.
Mitogenic activity towards NIH 3T3 fibroblasts was determined for WT*, SYM5, SYM5Δ104-106, SYM5Δ120-122, and SYM6ΔΔ mutants. […] The NIH 3T3 fibroblast proliferative activity of WT* FGF-1 yielded an effective concentration for 50% maximal stimulation (EC50) of 60 ng/ml (FIG. 3).

[2] = Heparin Sepharose affinity chromatography / heparin-binding affinity
Description: All studies herein disclosed utilized a synthetic gene for the 140 amino acid form of human FGF-1 with the addition of an amino-terminal six residue “His-tag” to facilitate purification using nickel nitrilotriacetic acid (Ni-NTA) affinity resin (QIAGEN, Valencia Calif.). The QuikChange® site-directed mutagenesis protocol (Stratagene, La Jolla Calif.) was used to introduce mutations, individually or in combination, using mutagenic oligonucleotides of 25 to 31 bases in length (Biomolecular Analysis Synthesis and Sequencing Laboratory, Florida State University). For deletions involving residues 104-106 and 120-122, mutagenic oligonucleotides were used to delete these positions as well as to simultaneously create point mutations Ala103 ? Gly and Arg119 ? Gly, respectively. […]
All mutant proteins, with the exception of the SYM6 mutant were expressed at levels similar to the WT* protein (i.e. ˜30-100 mg/L). […] Phe, and E280nm (0.1%, 1 cm)=1.31 for all deletion mutations (determined by dithionitrobenzoate titration of cysteine residues).
To quantify the reduced affinity for heparin (a polysulfonated polysaccharide) we determined the affinity for sucrose octasulfate, a structural mimic of a heparin dimer, by isothermal titration calorimetry. […]

| Molecule | EC50 (effective concentration for 50% maximal stimulation) [1] [mg/L] | mitogenic activity in comparison to WT* (in words) [1] | heparin-binding affinity (in words) [2] |
| --- | --- | --- | --- |
| WT*: Wild type (his-tagged) 140 amino acid form of human FGF-1, SEQ ID NO: 4 [reference compound] | 0.06 | – | – |
| B1 | 0.00084 | almost two orders of magnitude more potent | markedly reduced; also recorded: decreased heparin binding affinity |
| B2 | 0.0021 | – | – |
| B3 | – | essentially identical results as WT* | – |
| B4 | 0.115 | approximately two-fold less mitogenic activity | – |
